Experimental data from patent US20240400640A1 (published 2024).

Target: IL-21-Fc
Assay: SPR

Kd: 1.68 pM
B1: hIL-21 receptor (receptor)
chain: not shown
